Results from US20150182631A1, “SYSTEM FOR […]-BASED ACTIVE INGREDIENTS” (Centre National De La Recherche Scientifique-CNRS, priority 2012, published 2015).

Tests used:
[1] = Confinement of fluorescein in the lectin cavity; conditions: 4 days at ambient temperature, free fluorescein eliminated again
Experimental: The confinement experiments are carried out by incubating the wild-type protein (XCL) or the mutants (A38C) with the molecule to be tested. In order to carry out the control experiments with the mutant A38C, an oxidation step is carried out in the presence of GSSG in a phosphate buffer 50 mM, 100 mM NaCl, pH 7.2, OVN. The GSSG is then eliminated on a PD-10 sephadex G-25M column (GE Healthcare) pre-balanced in a phosphate buffer 50 mM, 100 mM NaCl, pH 8.5. The eluate is concentred at 1 ml on Vivaspin 15R 30,000 MWCO (Sartorius stedim). A batch of A38C is reduced to TCEP (under argon) with adding of NaOH for a final pH of 8.5. […] The quantity of fluorescein is measured by using an absorption coefficient of e511 nm=75,000 cm^−1 M^−1. The concentrations of XCL and of A38C after the confinement are calculated with e278 nm=[…]. The percentage of confinement is calculated by forming the ratio of the fluorescein/protein concentrations.
In the case with XCL, the inventors incubated the protein (15 μM) with fluorescein (10 mM) and then separated the protein from the non-confined molecules of fluorescein by two successive gel filtration columns. Beforehand, the inventors verified that if these two columns on the fluorescein solution are carried out at 10 mM, no residual free fluorescein is detected. […]

[2] = Size exclusion chromatography at variable concentration, tetramer equilibrium; assay type: physicochemical
Experimental: The size exclusion chromatography experiments were carried out on a GE-Healthcare Superose 12 PC 3.2/30 column. The columns are pre-balanced in the buffer tested, namely phosphate buffer 50 mM, 100 mM NaCl, pH7.2 or pH 4.4 in the absence or in the presence of 0.003% of SDS. The flow rate is 0.5 mL/min. The BSA and the RNase A are used as a size marker.
In order to confirm the data obtained in FRET, the displacement of the balance was evaluated by gel exclusion chromatography. Bovine Serum Albumin (BSA) and ribonuclease A were used to calibrate the column. Elution volumes of 12.6 ml and of 15.5 ml were obtained respectively. At a strong concentration (here 30 μM), XCL has an elution volume of 13.2 ml close to the elution volume of BSA as expected for tetrameric species. […] However, it was shown by digital simulation that according to the association rate, the rate of dissociation, the flow rate and separation characteristics of the column, two populations of molecules that are exchanging could lead to a single peak via size exclusion chromatography (Yu et al., (2006)). The inventors carried out several injections by using variable concentrations of XCL and observed that indeed a single peak was obtained. However this peak is displaced to longer elution volumes as the concentration decreases, indicating a smaller molecular weight.

[3] = FRET kinetics of subunit exchange (tetramer dissociation); assay type: physicochemical
Experimental: The speed of the exchange of subunits was measured by the same technique. The reaction is initiated by mixing the same volume of XCL-RITC (1 μM) and of XCL-FITC (1 μM) at 25° C. in 50 mM of phosphate buffer, 100 mM NaCl, pH 8.5. The excitation is carried out at 468 nm and the fluorescence emission at 580 nm is recorded every 0.5 seconds. The fluorescence intensity is normalised by using the equation: […]
where F(t) represents the experimental fluorescence in the time considered, F0 the value of the initial fluorescence, and F∞ the value of the final fluorescence when the state of equilibrium is reached. The kinetic data was modelled with the GOSA software (Czaplicki et al. (2006)). The best model was obtained for a double exponential of equation:
F=1−[a×e^−k^1^t+(1−a)×e^−k^2^t]
where: a represents the proportion of molecules at slow dissociation, k1 the kinetic constant of the slow dissociation and k2 the kinetic constant of the fast dissociation.
The dissociation kinetic of the tetramer was studied by mixing XCL-FITC and XCL-RITC and by measuring the fluorescence emission intensity at 580 nm as a function of time (FIG. 6).
The increase in the fluorescence intensity and therefore the effectiveness of the transfer between the fluorescein and the rhodamine are the result of two successive phenomena: firstly the dissociation of the tetramers into dimers and secondly their reassociation. Considering the shape of the curve (FIG. 6), no lag time is observed at the beginning of the kinetics which implies that the speed of reassociation is much faster than the speed of dissociation. It can therefore be considered that the speed of reassociation is negligible in this case. The kinetic data obtained was modelled using the GOSA software. The most suitable model for describing the phenomenon observed is a double exponential growth with two dissociation reactions that have difference speeds: […]

[4] = 25° C., pH 8.5, double exponential model

B1: XCL: Xerocomus chrysenteron lectin, fungal sporocarp lectin forming a tetramer with central cavity, SEQ ID NO: 1 (protein)
chain: MSYSITLRVYQTNRDRGYFSIVEKTVWHFANGGTWSEANGAHTLTQGGSGTSGVLRFLSTKGERITVAVGVHNYKRWCDVVTGLKPDETALVINPQYYNNGGRDYVREKQLAEYSVTSAIGTKVEVVYTVAEGNNLEANVIFS
modifications: Xerocomus chrysenteron
confinement rate after incubation [1]: remained unchanged
concentration of the transition in elution volume [2]: close to the micromolar
a: proportion of molecules engaged in the slow reaction [3, 4]: 0.39
k1: kinetic constant of the slowest dissociation reaction [3, 4]: 0.72 min⁻¹
k2: kinetic constant of the fastest dissociation reaction [3, 4]: 2.52 min⁻¹
time until balance of fluorescence intensity at 580 nm is reached ([3]; mixing XCL-FITC and XCL-RITC): more than 300 seconds
